This note sets out measurements from paper PMC3323580.

pKd: −log10 of the molar value.

What all share (experiment): SPR; C3b (1620 RU), C4b (1518 RU) and C1q (2125 RU) amine-coupled on three flow cells of one CM5 chip; CR1 fragments flowed at 30 µl/min, Biacore T100, 25°C, HBS-EP pH 7.4 (10 mM Hepes, 150 mM saline, 3 mM EDTA, 0.05% polysorbate 20); steady-state fit, one-to-one model; duplicates
(SPR reads the build-up and loss of mass on a sensor chip optically.)

Assay [1] concerns the target C1q, classical complement pathway protein (UniProt P02745).
Assay [2] has as its target C3b, complement-activation fragment of C3.
Assay [3] has as its target C4b, complement-activation fragment of C4.

Chain of C1q, classical complement pathway protein (P02745 23-245, chain 1 of 3): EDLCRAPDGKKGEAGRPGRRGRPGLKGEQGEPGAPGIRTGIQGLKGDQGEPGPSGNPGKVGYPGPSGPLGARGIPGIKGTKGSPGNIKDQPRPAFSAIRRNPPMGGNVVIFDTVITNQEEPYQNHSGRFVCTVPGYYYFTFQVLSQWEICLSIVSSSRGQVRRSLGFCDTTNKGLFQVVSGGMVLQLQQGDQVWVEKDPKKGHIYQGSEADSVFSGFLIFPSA
Chain of C1q, classical complement pathway protein (P02746 28-253, chain 2 of 3, further chain): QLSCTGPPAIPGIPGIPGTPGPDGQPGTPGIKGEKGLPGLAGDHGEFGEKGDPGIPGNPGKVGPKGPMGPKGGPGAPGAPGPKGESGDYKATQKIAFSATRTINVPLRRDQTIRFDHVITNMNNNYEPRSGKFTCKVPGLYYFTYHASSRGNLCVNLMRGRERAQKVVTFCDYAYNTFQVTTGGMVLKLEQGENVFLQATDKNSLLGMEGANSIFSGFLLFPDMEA
Chain of C1q, classical complement pathway protein (P02747 29-245, chain 3 of 3, further chain): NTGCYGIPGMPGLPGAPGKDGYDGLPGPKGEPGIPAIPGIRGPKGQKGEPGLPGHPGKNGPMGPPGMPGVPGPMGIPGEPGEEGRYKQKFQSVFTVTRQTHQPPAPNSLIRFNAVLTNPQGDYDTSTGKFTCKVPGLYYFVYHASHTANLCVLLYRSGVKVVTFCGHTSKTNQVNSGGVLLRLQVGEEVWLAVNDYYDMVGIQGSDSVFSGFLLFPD

Regarding “CR1 15–25(EG), complement receptor-type 1 CCPs 15–25, Glu1590/Gly1601 variant (domain or fragment)”, the pKd (usually −log10 of the Kd, conventionally taken in molar units) was 5.29 in assay [1], 6.10 in assay [2] and 5.30 in assay [3].

As to “CR1 15–25(ER), complement receptor-type 1 CCPs 15–25, Glu1590/Arg1601 variant (domain or fragment)”, the pKd in assay [1] is 5.24; in assay [2], 5.96; in assay [3] it was 5.28.

As to “CR1 15–17 (site 2), complement receptor-type 1 CCPs 15–17 (domain or fragment)”, the pKd in assay [1] was 6.09; in assay [2], 5.97; in assay [3], 5.49.

Consider “CR1 15–25(KG), complement receptor-type 1 CCPs 15–25, Lys1590/Gly1601 variant (domain or fragment)”, for which the pKd in assay [1] was 5.26; in assay [2], 5.98; in assay [3], 5.28.

On to “soluble CR1 (sCR1), full-length ectodomain of complement receptor-type 1 (from UniProt P17927 42-1971)”, for which the pKd was 6.28 in assay [2] and 6.04 in assay [3].

As to “CR1 1–3 (site 1), complement receptor-type 1 CCPs 1–3 (domain or fragment)”, the pKd in assay [1] was 4.51; in assay [2], 4.42; in assay [3], 4.95.

For the substance “CR1 15–25(KR), complement receptor-type 1 CCPs 15–25, Lys1590/Arg1601 variant (domain or fragment)”, the pKd in assay [1] is 5.24; in assay [2] it was 6.00; in assay [3], 5.29.
